In the supplement of paper PMC12042874:
± gives the uncertainty stated by the source.

Test: amyloid nucleation score (Sup35N fusion, yeast selection) (log enrichment); library NNK1; higher = more nucleation; inactive = no reads after selection
In short: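 In psi-negative yeast, Sup35N fusions carrying peptides of 20 random codons were induced with 100 μM copper sulfate for 24 hours. The cells then grew 7 days at 30°C on medium lacking adenine and uracil, and plasmid inserts from input and output were Illumina-sequenced, excluding sequences with under 100 input reads. Nucleation score is the DiMSum log enrichment of output over input reads, centred on the mode score of non-aggregating sequences.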

Compared with ITMGTGCSAGEWFMVYMMC, SNKDLKSLTICRSTQHWTVL is lower in amyloid nucleation score: 2.15 ± 0.2 for the first, 0.095 ± 0.27 for the second.

RERVISVWGL and NSFSDSHRWKPGRRNRCKRG are within error of each other in amyloid nucleation score: -0.197 ± 0.45 for the first, 1.07 ± 0.97 for the second.

Going from IFQPFFAYSGKLVWPFKRDP to GLVACQAMSNV, the amyloid nucleation score falls from 4.01 ± 0.081 to -0.138 ± 0.44.

SMFLLRPYRVCFCSRRFVTV and WVRSNKGQAGSG are within error of each other in amyloid nucleation score: 0.253 ± 0.77 for the first, 0.886 ± 1 for the second.

LSAKLQFCITIEYALRVTKC and QRHSLNDNCRCLRYPQHSPN are within error of each other in amyloid nucleation score: -0.106 ± 1.7 for the first, 1.07 ± 0.73 for the second.

IRQTVVLGL and RLSSSCSSAEDWYRKGHLLK are within error of each other in amyloid nucleation score: -0.732 ± 0.7 for the first, -0.063 ± 0.4 for the second.

ICNFERILRNMVFAWWYKID and TCCRRVLSMEQQDTLVYWQY are within error of each other in amyloid nucleation score: 0.621 ± 0.42 for the first, -0.585 ± 1.7 for the second.

SNDKHKIRIYAGYFFVQRGC and SKYIGVVSPTWLH are within error of each other in amyloid nucleation score: 0.312 ± 0.37 for the first, 0.428 ± 1.2 for the second.

Going from CASWTCAEKAEHTMYMEDYP to VCCYILAYNMFGVLAEWLCG, the amyloid nucleation score rises from 0.02 ± 0.36 to 3.66 ± 0.069.

LYTNSLRF and GSYECV are within error of each other in amyloid nucleation score: -0.419 ± 0.64 for the first, 0.734 ± 1.2 for the second.

PYWVYEHSTC and PLLMGEEFRYSFSLCYNTSS are within error of each other in amyloid nucleation score: -0.726 ± 0.63 for the first, -0.548 ± 1.7 for the second.

YGGISMLLCRSVWRFNRQYI and RSMSTIRIEGSESTSFISS are within error of each other in amyloid nucleation score: 0.547 ± 0.76 for the first, -0.812 ± 1.7 for the second.

FGSDPISCGVWYMCVRGWYG and TQEVLLFPGGCYNPFAFGWS are within error of each other in amyloid nucleation score: 0.108 ± 0.3 for the first, -0.647 ± 0.75 for the second.

SERDRLSLMRRVAM and RVFSSFGFMKRRPVWTVWIT are within error of each other in amyloid nucleation score: -0.153 ± 1.4 for the first, -0.324 ± 0.81 for the second.

KHDRHAKTTSLYRKPGKLRR and CSTQRVPGGGLGKSWL are within error of each other in amyloid nucleation score: 0.4 ± 1.1 for the first, 0.18 ± 1.2 for the second.

YVSYDQTNSAAYYVRVRLRF and DRNLDEWGEASL are within error of each other in amyloid nucleation score: 0.947 ± 0.73 for the first, -0.145 ± 1.5 for the second.

YTRFVKGYTRNRFSRDTSAV and EFIFFCFVLCYANVMLLWN are within error of each other in amyloid nucleation score: -0.084 ± 0.28 for the first, 0.601 ± 0.42 for the second.

FRSPN and RILRDQTWIPSMATDSILVC are within error of each other in amyloid nucleation score: -0.285 ± 0.58 for the first, -1.23 ± 0.79 for the second.

First: TYRFGCTLPLLRMCFIP
Second: SRVSLFGWSGFKFTSRDSWL
The amyloid nucleation score of the first is lower: 0.435 ± 0.71 for the first, 3.51 ± 0.18 for the second.

FPSARYNNLT and YYDTEGIHHSSIQRCQIRAG are within error of each other in amyloid nucleation score: 0.655 ± 0.57 for the first, 1.16 ± 0.58 for the second.

Compared with LSIAHYGLNQSMSVRYREST, HNELCFMFYSLGNCYGAGVG is higher in amyloid nucleation score: 0.771 ± 0.66 for the first, 5.03 ± 0.095 for the second.

LVVLSTVDA and MDKLASLLSSKGCAIKGLRS are within error of each other in amyloid nucleation score: -0.279 ± 0.67 for the first, -2.19 ± 1.3 for the second.

TAGCICPCKQAVYGICQSRT and FGNGHSRMHHRTLHTKPRAA are within error of each other in amyloid nucleation score: -0.447 ± 0.71 for the first, 0.37 ± 1.1 for the second.

SIVGLNQ and IWWVDGVKTGSF are within error of each other in amyloid nucleation score: 0.742 ± 0.43 for the first, 1.21 ± 0.76 for the second.

Compared with CSTTLEVTVGMAVVMLLQGI, HVVAALWCARNFWGVLNVCC is lower in amyloid nucleation score: 2.66 ± 0.086 for the first, -0.09 ± 0.53 for the second.

LSGVCRIFH and KYWWY are within error of each other in amyloid nucleation score: 0.584 ± 0.35 for the first, 0.265 ± 0.2 for the second.

First: CSAKNLYVTTQFSLVLFVGS
Second: SIPLCTLESQSEKVTWISDQ
The amyloid nucleation score of the first is higher: 6.422 ± 0.052 for the first, 0.325 ± 0.78 for the second.

LLPGLIEWSVGLMCLIL and VRRDQDRPFSTMRQGLRFGH are within error of each other in amyloid nucleation score: 0.023 ± 0.9 for the first, 0.248 ± 0.31 for the second.

DCISRLWR and TPNQSRFPNAVMTDTVTSFS are within error of each other in amyloid nucleation score: -0.83 ± 0.89 for the first, 0.214 ± 0.81 for the second.

Going from PGSWVTESLMTYRLCNLSNV to CELSDSVNGNTFNMN, the amyloid nucleation score rises from 0.455 ± 0.35 to 2.18 ± 0.49.

AFYLLF and GFWVWSSSRRCLIVRFQVMG are within error of each other in amyloid nucleation score: -0.395 ± 0.51 for the first, -0.373 ± 0.56 for the second.

Going from VRADFALTWLLGVCRVWCCR to PHGHVEYLIFFCNKPGSHGS, the amyloid nucleation score rises from 0.247 ± 0.36 to 1.49 ± 0.3.

VGFNKL and YVGADMELHSRMVTDTYFAS are within error of each other in amyloid nucleation score: 0.013 ± 0.6 for the first, -0.707 ± 1.1 for the second.

NPPVWPSTFQE and LGTVRVLEHEVVWHYVLEAR are within error of each other in amyloid nucleation score: -0.159 ± 0.58 for the first, 0.485 ± 0.6 for the second.

SLGKLYAGDGVCMGTLPDSK and NPMLLPSEPSS are within error of each other in amyloid nucleation score: 0.017 ± 0.56 for the first, -0.181 ± 0.42 for the second.

First: SKKSMYFLVRNWSQNLTRAG
Second: NMALCTCGLNPGNL
The amyloid nucleation score of the first is higher: 2.21 ± 0.63 for the first, 0.003 ± 0.46 for the second.

WLNFWILMSVMFVNMSSLFP and VILSYCLIFLK are within error of each other in amyloid nucleation score: -1.01 ± 0.52 for the first, -0.647 ± 0.48 for the second.

First: LDSDGVASYDTRMSIRWYIE
Second: FLFLYNVGVVIRSGYMFLRS
The amyloid nucleation score of the first is higher: 2 ± 0.49 for the first, 0.088 ± 0.93 for the second.

ELRCTTWSRSPSLQVALVDL and GFNLAW are within error of each other in amyloid nucleation score: -0.499 ± 0.59 for the first, -0.547 ± 0.56 for the second.

GEKWMLEVASFICKSGFRVC and LTDPLCQTPFFYLFCRDAQE are within error of each other in amyloid nucleation score: -0.535 ± 1.7 for the first, -0.142 ± 0.4 for the second.

VCLGLSQDLHKSYTVRSAT and SYFGYNVIMEIHTI are within error of each other in amyloid nucleation score: -0.009 ± 0.41 for the first, -0.122 ± 0.31 for the second.

LFNGLYHLVMRVMWRRLV and EYDLRSGEG are within error of each other in amyloid nucleation score: -0.061 ± 1.2 for the first, -0.332 ± 0.46 for the second.

In the case of KFTFDS, the amyloid nucleation score is reported as 1.52 ± 0.35.

For VVTDF, the amyloid nucleation score was “inactive”.
